Results reported in US20240294895A1, “ENZYMATIC COMPOSITIONS FOR CARBOHYDRATE ANTIGEN CLEAVAGE ON DONOR ORGANS, METHODS AND USES ASSOCIATED THEREWITH” (THE UNIVERSITY OF BRITISH COLUMBIA, priority 2018, published 2024).

Columns and labels:
Test in all cases: Kinetic parameters of FpGalNAcDeAc full length (coupled fluorescence assay, MU release)
Assay type in all cases: biochemical, Flavonifractor plautii
Conditions in all cases: other: 100 mM NaH2PO4, pH 7.4, 37° C.
[1] = substrate: CC(=O)N[C@H]1[C@@H](O[C@H]2[C@@H](O)[C@@H](CO)O[C@@H](O[C@H]3[C@H](O)[C@@H](CO)O[C@@H](Oc4ccc5c(C)cc(=O)oc5c4)[C@@H]3NC(C)=O)[C@@H]2O[C@@H]2O[C@@H](C)[C@@H](O)[C@@H](O)[C@@H]2O)O[C@H](CO)[C@H](O)[C@@H]1O
Protocol: (§1) All kinetic assays utilizing 4-methylumbelliferone as leaving group were performed through measurement of fluorescence. To avoid measurement errors based on the inner filter effect (Palmier 2007) standard curves were used to validate the linear range of the fluorophore.
(§2) Michaelis-Menten parameters were determined for A antigen subtype 1penta-MU in 100 mM NaH2PO4, pH 7.4 at 37° C. using the coupled assays described previously (Kwan 2015). The assay was modified to allow detection of cleavage of the subtype 1 (and later 4), by use of BgaC (Jeong 2009) instead of BgaA (Singh 2014) as β-galactosidase. In addition, since A antigen subtype 1penta-MU contains an additional galactose, the concentration of BgaC was increased to 0.2 mg/mL to compensate for its need to cleave both the Gal-β-1,3-B-GlcNAc-β-1,3-Gal-β-MU and Gal-β-MU. Further, FpGalactosaminidase was included to allow the cleavage of the galactosamine-containing intermediate. Reaction setup in 100 μl was 3 nM FpGalNacDeacetylase (4.52 nM FpGalNacDeAc_D1ext, 3.55 nM FpGalNacDeAc_D1+2) and 0.01 mg/mL FpGalactosaminidase, 0.1 mg/mL SpHex, AfcA, 0.2 mg/mL BgaC and varying concentrations of substrate (5 μM-2.5 mM). The reactions were run as a series of four with controls (no FpGalNacDeacetylase) as duplicates. The fluorescence signal (365/435 nm) resulting from MU release by hydrolysis was monitored on a Synergy H1™ plate reader (BioTek™) and converted to concentration using MU standard concentration curves determined under identical reaction conditions. Initial rates (μM/s) were determined and plotted in Grafit 7.0 to determine the kinetic parameters.
(§3) kcat/KM parameter were determined for A antigen subtype 1/2/4tetra-MU at pH 7.4 at 37° C. Reactions (total volume of 100 μL) were performed in black 96-plate wells and as coupled assays in 100 mM NaH2PO4 (pH 7.4) with 12 nM FpGalNAcDeacetylase 0.1 mg/mL SpHex, BgaC (BgaA for subtype II), AfcA, at varying concentrations of substrate (25 μM, 20 μM, 15 μM, 10 μM, 7.5 μM, 5 μM). The reactions were run as a series of four with controls (no FpGalNAcDeacetylase) as duplicates. The fluorescence signal (365/435 nm) resulting from MU release by hydrolysis was monitored on a Synergy H1™ plate reader (BioTek™) and converted to concentration using MU standard concentration curves determined under identical reaction conditions. Initial rates (μM/s) were determined and plotted in Grafit™ 7.0 to determine the kcat/KM (s^−1*mM^−1) parameters.

[2] = substrate: CC(=O)N[C@H]1[C@@H](O[C@H]2[C@@H](O)[C@@H](CO)O[C@@H](O[C@H]3[C@H](O)[C@@H](CO)O[C@@H](O[C@H]4[C@@H](O)[C@@H](CO)O[C@@H](Oc5ccc6c(C)cc(=O)oc6c5)[C@@H]4O)[C@@H]3NC(C)=O)[C@@H]2O[C@@H]2O[C@@H](C)[C@@H](O)[C@@H](O)[C@@H]2O)O[C@H](CO)[C@H](O)[C@@H]1O
Protocol: as §1, §2, §3

[3] = substrate: CC(=O)N[C@H]1[C@@H](O[C@H]2[C@@H](O)[C@@H](CO)O[C@@H](O[C@H]3[C@@H](O)[C@@H](CO)O[C@@H](Oc4ccc5c(C)cc(=O)oc5c4)[C@@H]3NC(C)=O)[C@@H]2O[C@@H]2O[C@@H](C)[C@@H](O)[C@@H](O)[C@@H]2O)O[C@H](CO)[C@H](O)[C@@H]1O
Protocol: as §1, §2, §3

[4] = substrate: CC(=O)N[C@H]1[C@H](Oc2ccc3c(C)cc(=O)oc3c2)O[C@H](CO)[C@@H](O[C@@H]2O[C@H](CO)[C@H](O)[C@H](O[C@H]3O[C@H](CO)[C@H](O)[C@H](O)[C@H]3NC(C)=O)[C@H]2O[C@@H]2O[C@@H](C)[C@@H](O)[C@@H](O)[C@@H]2O)[C@@H]1O
Protocol: as §1, §2, §3

B1: Flavonifractor plautii GalNAcDeacetylase (FpGalNAcDeAc), full length, SEQ ID NO: 2, 4, 5 (Flavonifractor plautii) (protein)
chain: MGHHHHHHHHHHSSGADSSESALNKAPGYQDFPAYYSDSAHADDQVTHPDVVVLEEPWNGYRYWAVYTPNVMRISIYENPSIVASSDGVHWVEPEGLSNPIEPQPPSTRYHNCDADMVYNAEYDAMMAYWNWADDQGGGVGAEVRLRISYDGVHWGVPVTYDEMTRVWSKPTSDAERQVADGEDDFITAIASPDRYDMLSPTIVYDDFRDVFILWANNTGDVGYQNGQANFVEMRYSDDGITWGEPVRVNGFLGLDENGQQLAPWHQDVQYVPDLKEFVCISQCFAGRNPDGSVLHLTTSKDGVNWEQVGTKPLLSPGPDGSWDDFQIYRSSFYYEPGSSAGDGTMRVWYSALQKDTNNKMVADSSGNLTIQAKSEDDRIWRIGYAENSFVEMMRVLLDDPGYTTPALVSGNSLMLSAETTSLPTGDVMKLETSFAPVDTSDQVVKYTSSDPDVATVDEFGTITGVSVGSARIMAETREGLSDDLEIAVVENPYTLIPQSNMTATATSVYGGTTEGPASNVLDGNVRTIWHTNYAPKDELPQSITVSFDQPYTVGRFVYTPRQNGTNGIISEYELYAIHQDGSKDLVASGSDWALDAKDKTVSFAPVEAVGLELKAIAGAGGFGTAAELNVYAYGPIEPAPVYVPVDDRDASLVFTGAWNSDSNGSFYEGTARYTNEIGASVEFTFVGTAIRWYGQNDVNFGAAEVYVDGVLAGEVNVYGPAAAQQLLFEADGLAYGKHTIRIVCVSPVVDFDYFSYVGE
[1]
  kcat/Km: 23490 ± 630 M⁻¹ s⁻¹
[2]
  Km: 340 ± 35 µM
  kcat: 4.86 s⁻¹
  kcat/Km: 14280 M⁻¹ s⁻¹
[3]
  kcat/Km: 33270 ± 2080 M⁻¹ s⁻¹
[4]
  kcat/Km: 23370 ± 710 M⁻¹ s⁻¹
